Like-named read-outs stand apart in the source and are kept apart here.
B1: PtALD: aldolase derived from Pseudomonas taetrolens ATCC4683, amino acid sequence SEQ ID No: 2 or 3; recombinant, purified in Example 4 (protein, listed as Pseudomonas taetrolens)
chain: MEVAMSLPGSRIYPSPPQAPRSLLDAFQNVVTPHISDNLGRHIGARGLTRYNHTGKLVGTALTVKTRPGDNLYIYKALTLIEPGHVLVIDAQGDATNAVIGELIKLYAQQRGCVGFVVDGAIRDVASFEDTPCYARSVVHCGPYKSGPGEINVPVSIGGMIINPGDIIVGDEDGLVAFSPDHAEQVLVKAREHDAHEQQVKAEIATGAIDQSWLDKVLEKAGLAN
B2: PcALD: aldolase derived from Pseudomonas coronafaciens strain AJ2791, amino acid sequence SEQ ID No: 16; recombinant, purified in Example 5 (protein, listed as Pseudomonas coronafaciens)
chain: MKCHSVIWFSAWPHPIISREKSHMTIGFRVLSAARKVSPEWVARYRDVPVANVSDSMNRMTAGGSRLRPMHRAGVLAGPALTVKARPGDNLMLHYAIDIAQPGDVIVVDAGGDLTNALIGEMMVAYAVKRGVAGIVINGAIRDAASIGAGDFPMFAAGVSHRGPYKDGPGEINVPIAIDGMVIEAGDLVIGDDDGLLCVPYDQVAEVYDRAAAKHHAEQKQLEQIAKGENDRSWVLESLKKKGCQLPE

What was measured:
[1] = Aldol condensation activity of PtALD using acetaldehyde and α-ketobutyrate (ESI-MS); assay type: biochemical; conditions: 50 mM acetoaldehyde, 250 mM α-ketobutyrate, 0.1 mg/ml PtALD, pH 9, 33° C., 16 hours
Protocol: The aldol condensation activity of the PtALD prepared in Example 4 was measured using acetaldehyde and α-ketobutyrate. A reaction solution composed of 100 mM glycine-NaOH (pH 9), 50 mM acetoaldehyde, 250 mM α-ketobutyrate, 1 mM MgCl2 and 0.1 mg/ml PtALD was prepared, and it was incubated at 33° C. for 16 hours. The resulting reaction solution was subjected to ultrafiltration with an ultrafiltration membrane, Microcon 10 (Amicon) for a fraction molecular weight of 10000. 10 μl of the filtrate was diluted in 200 μl of 50% acetonitrile/0.1% aqueous ammonia solution followed by ESI-MS analysis.

[2] = Temperature stability of PtALD (residual activity); assay type: physicochemical; conditions: 30 minutes incubation, pH 7.0 and pH 9.0
Protocol: Residual activity was measured under the basic measurement conditions after incubating PtALD at 25 to 70° C. for 30 minutes in 100 mM potassium phosphate buffer (pH 7.0) and 100 mM glycine-NaOH buffer (pH 9.0).

[3] = Optimum pH of PtALD aldolase activity; assay type: biochemical; conditions: at 33° C.
Protocol: More specifically, aldolase activity may be estimated according to the following steps of adding aldolase to a reaction solution composed of 100 mM buffer, 50 mM indole-3-pyruvic acid, 250 mM pyruvic acid, 1 mM MgCl2 and 1% (v/v) toluene; and shaking while reaction at 33° C. for 4 hours; and then quantifying the amount of IHOG formed by HPLC.

[4] = pH stability of PtALD (residual activity); assay type: physicochemical; conditions: 37° C., 30 minutes, 100 mM buffers
Protocol: pH stability was measured over a range of pH 3 to pH 11. The buffers used for measurement were as follows: sodium acetate buffer (pH 3, 4, 5, 6), potassium phosphate buffer (pH 6, 6.5, 7, 7.5), Tris-HCl buffer (pH 7, 7.5, 8, 8.5), glycine-NaOH buffer (pH 9, 9.5, 10), CAPS-NaOH buffer (pH 10, 10.5, 11). The residual activity after incubating PtALD at 37° C. for 30 minutes in each of the buffer solutions at a concentration of 100 mM was measured under the basic reaction conditions.

[5] = Enzymatic properties of PtALD: kinetics constants when using PHOG as substrate; assay type: biochemical
Protocol: Basic reaction conditions: 50 mM Hepes-KOH (pH 8.0), 2 mM PHOG, 5 mM MgCl2, 3 mM KPB (pH 8), 16 U/ml of lactate dehydrogenase, measure a optical absorbance at 340 nm measured at 30° C.
The aldolase activity increased by 2.7 times as compared with a non-addition lot following addition of 1 mM MgCl2, and increased 2 times as compared with a non-addition lot following addition of 5 mM KPB.

[6] = Synthesis of IHOG from indole-3-pyruvic acid and pyruvic acid using purified PtALD and PcALD; assay type: biochemical; conditions: PtALD 1.8 U/ml, PcALD 0.8 U/ml, pH 8.5, 33° C., 4 hours
Protocol: 4-(Indol-3-ylmethyl)-4-hydroxy-2-oxoglutarate (IHOG) was synthesized from indole-3-pyruvic acid and pyruvic acid using the PtALD and PcALD produced in Examples 4 and 5 as enzyme sources. The amount of IHOG was determined by HPLC analysis using the “Inertsil ODS-2” (GL Sciences Inc., 5 μm, 4.6×250 mm). The analysis conditions are as indicated below.
Mobile phase: 40% (v/v) acetonitrile/5 mM tetrabutyl
ammonium dihydrogen phosphate solution
Column temperature: 40° C.
PtALD and PcALD were added at 1.8 U/ml and 0.8 U/ml, respectively, to a reaction solution comprised of 100 mM Hepes-KOH (pH 8.5), 50 mM indole-3-pyruvic acid, 250 mM pyruvic acid and 1 mM to 5 mM MgCl2, and allowed to react at 33° C. for 4 hours. The enzyme reaction solution was suitably diluted and the amount of IHOG formed was quantified. As a result, IHOG was able to be formed from the aldolases.

[7] = Aldol condensation activity of pyruvic acid for various substrates using PtALD (ESI-MS); assay type: biochemical; conditions: 50 mM substrate, 250 mM sodium pyruvate, 0.1 mg/ml PtALD, pH 9, 33° C., 2 hours; substrates of Tables 11 and 12
Protocol: The aldol condensation activity of pyruvic acid was measured for the various substrates shown in Table 11 using the PtALD produced in Example 4. A reaction solution was prepared composed of 100 mM glycine-NaOH (pH 9), 50 mM substrate, 250 mM sodium pyruvate, 1 mM MgCl2 and 0.1 mg/ml PtALD, and incubated at 33° C. for 2 hours. The resulting reaction solution was subjected to ultrafiltration with an ultrafiltration membrane, Microcon 10 (Amicon) for a fraction molecular weight of 10000. 2 μl of the filtrate was diluted in 200 μl of 50% acetonitrile/0.1% aqueous ammonia solution followed by ESI-MS analysis.

Molecule	Formation of aldol condensate from acetaldehyde and α-ketobutyrate [1]	temperature stability [2] [°C]	optimum pH [3]	pH stability (pH) [4]	Increase of aldolase activity as compared with a non-addition lot ([5]; addition of 1 mM MgCl2) [times]	Increase of aldolase activity as compared with a non-addition lot ([5]; addition of 5 mM KPB) [times]	Ka (for KPi) ([5]; pH 8.0, 30° C.) [mM]	Vmax (for PHOG) ([5]; pH 8.0, 30° C.) [µmol/min/mg]	Km ([5]; pH 8.0, 30° C., read-out: Km (for MgCl2)) [µM]	Km ([5]; pH 8.0, 30° C., read-out: Km (for PHOG)) [µM]	IHOG formed ([6]; MgCl2 1 mM) [mM]	IHOG formed ([6]; MgCl2 5 mM) [mM]	Formation of pyruvic acid aldol condensates for various substrates [7]
B1	formation of the desired aldol condensate	≤ 70	about 9	≥ 6	2.7	2	0.95	91.7	19	100	11.4	10.5	the desired pyruvic acid aldol condensates were formed
B2											4.9	5.4	
